Where two headings read alike, the source gives them in different places.
B2: full-length FliD, as in the fusion constructs (natural protein)
chain: MASISSLGVGSNLPLDQLLTDLTKNEKGRLTPITKQQSANSAKLTAYGTLKSALEKFQTANTALNKADLFKSTVASSTTEDLKVSTTAGAAAGTYKINVTQLAAAQSLATKTTFATTKEQLGDTSVTSRTIKIEQPGRKEPLEIKLDKGDTSMEAIRDAINDADSGIAASIVKVKENEFQLVLTANSGTDNTMKITVEGDTKLNDLLAYDSTTNTGNMQELVKAENAKLNVNGIDIERQSNTVTDAPQGITLTLTKKVTDATVTVTKDDTKAKEAIKSWVDAYNSLVDTFSSLTKYTAVEPGEEASDKNGALLGDSVVRTIQTGIRAQFANSGSNSAFKTMAEIGITQDGTSGKLKIDDDKLTKVLKDNTAAARELLVGDGKETGITTKIATEVKSYLADDGIIDNAQDNVNATLKSLTKQYLSVSNSIDETVARYKAQFTQLDTMMSKLNNTSSYLTQQFTAMNKS

How the values were obtained:
[1] = target: FliD D1 domain (FliD^d1) (Salmonella enterica serovar Typhimurium) (UniProt P16328); assay: NMR titration
cryo-EM structure [2] = target: the molecule itself; assay: cryo-EM structure
cryo-EM structure [3] = target: the molecule itself; assay: cryo-EM structure; remark: listed apart in the source
cryo-EM structure [4] = target: the molecule itself; assay: cryo-EM structure; remark: listed apart in the source
cryo-EM structure [5] = target: the molecule itself; assay: cryo-EM structure; remark: listed apart in the source
cross-linking = target: the molecule itself; assay: cross-linking
[6] = target: B2; assay: cryo-EM structure
[7] = target: FliD D1 domain (FliD^d1) (Salmonella enterica serovar Typhimurium) (UniProt P16328); assay: NMR titration; remark: listed apart in the source

In the case of “FliC, flagellin (unlabeled, for NMR titration) (from UniProt P06179 1-495) (natural protein)”, the Kd [1] is reported as 1650 µM and the stoichiometry N [1] is reported as 1.

B1: FliD d0 domain truncation construct (FliD^d1d2d3, residues from 44 to 411) (domain or fragment)
chain: LTAYGTLKSALEKFQTANTALNKADLFKSTVASSTTEDLKVSTTAGAAAGTYKINVTQLAAAQSLATKTTFATTKEQLGDTSVTSRTIKIEQPGRKEPLEIKLDKGDTSMEAIRDAINDADSGIAASIVKVKENEFQLVLTANSGTDNTMKITVEGDTKLNDLLAYDSTTNTGNMQELVKAENAKLNVNGIDIERQSNTVTDAPQGITLTLTKKVTDATVTVTKDDTKAKEAIKSWVDAYNSLVDTFSSLTKYTAVEPGEEASDKNGALLGDSVVRTIQTGIRAQFANSGSNSAFKTMAEIGITQDGTSGKLKIDDDKLTKVLKDNTAAARELLVGDGKETGITTKIATEVKSYLADDGIIDNAQDNV
With B1 the “stoichiometry N” value (cryo-EM structure [2]) was 5.

With B2 the “stoichiometry N” value (cryo-EM structure [3]) was 10 and the “stoichiometry N” value (cryo-EM structure [4]) was 5.

B3: native FliD of the flagellar tip (natural protein)
chain: MASISSLGVGSNLPLDQLLTDLTKNEKGRLTPITKQQSANSAKLTAYGTLKSALEKFQTANTALNKADLFKSTVASSTTEDLKVSTTAGAAAGTYKINVTQLAAAQSLATKTTFATTKEQLGDTSVTSRTIKIEQPGRKEPLEIKLDKGDTSMEAIRDAINDADSGIAASIVKVKENEFQLVLTANSGTDNTMKITVEGDTKLNDLLAYDSTTNTGNMQELVKAENAKLNVNGIDIERQSNTVTDAPQGITLTLTKKVTDATVTVTKDDTKAKEAIKSWVDAYNSLVDTFSSLTKYTAVEPGEEASDKNGALLGDSVVRTIQTGIRAQFANSGSNSAFKTMAEIGITQDGTSGKLKIDDDKLTKVLKDNTAAARELLVGDGKETGITTKIATEVKSYLADDGIIDNAQDNVNATLKSLTKQYLSVSNSIDETVARYKAQFTQLDTMMSKLNNTSSYLTQQFTAMNKS
In the case of B3, the “stoichiometry N” value (cryo-EM structure [5]) is reported as 5.

B4: FliD^2C (A91C/A168C) (natural protein)
chain: MASISSLGVGSNLPLDQLLTDLTKNEKGRLTPITKQQSANSAKLTAYGTLKSALEKFQTANTALNKADLFKSTVASSTTEDLKVSTTAGACAGTYKINVTQLAAAQSLATKTTFATTKEQLGDTSVTSRTIKIEQPGRKEPLEIKLDKGDTSMEAIRDAINDADSGICASIVKVKENEFQLVLTANSGTDNTMKITVEGDTKLNDLLAYDSTTNTGNMQELVKAENAKLNVNGIDIERQSNTVTDAPQGITLTLTKKVTDATVTVTKDDTKAKEAIKSWVDAYNSLVDTFSSLTKYTAVEPGEEASDKNGALLGDSVVRTIQTGIRAQFANSGSNSAFKTMAEIGITQDGTSGKLKIDDDKLTKVLKDNTAAARELLVGDGKETGITTKIATEVKSYLADDGIIDNAQDNVNATLKSLTKQYLSVSNSIDETVARYKAQFTQLDTMMSKLNNTSSYLTQQFTAMNKS
With B4 the “stoichiometry N” value (cross-linking) was 5.

B5: FliC D1D2D3 (residues 45-455), as in the FliD-FliC fusion (domain or fragment)
chain: AAGQAIANRFTANIKGLTQASRNANDGISIAQTTEGALNEINNNLQRVRELAVQSANSTNSQSDLDSIQAEITQRLNEIDRVSGQTQFNGVKVLAQDNTLTIQVGANDGETIDIDLKQINSQTLGLDTLNVQQKYKVSDTAATVTGYADTTIALDNSTFKASATGLGGTDQKIDGDLKFDDTTGKYYAKVTVTGGTGKDGYYEVSVDKTNGEVTLAGGATSPLTGGLPATATEDVKNVQVANADLTEAKAALTAAGVTGTASVVKMSYTDNNGKTIDGGLAVKVGDDYYSATQNKDGSISINTTKYTADDGTSKTALNKLGGADGKTEVVSIGGKTYAASKAEGHNFKAQPDLAEAAATTTENPLQKIDAALAQVDTLRSDLGAVQNRFNSAITNLGNTVNNLTSARSRIE
For B5, the “stoichiometry N” value [6] was 1.

B6: FlgL, hook-filament junction protein (unlabeled, for NMR titration) (natural protein)
chain: MRISTQMMYEQNMSGITNSQAEWMKLGEQMSTGKRVTNPSDDPIAASQAVVLSQAQAQNSQYALARTFATQKVSLEESVLSQVTTAIQTAQEKIVYAGNGTLSDDDRASLATDLQGIRDQLMNLANSTDGNGRYIFAGYKTEAAPFDQATGGYHGGEKSVTQQVDSARTMVIGHTGAQIFNSITSNAVPEPDGSDSEKNLFVMLDTAIAALKTPVEGNNVEKEKAAAAIDKTNRGLKNSLNNVLTVRAELGTQLSELSTLDSLGSDRALGQKLQMSNLVDVDWNSVISSYVMQQAALQASYKTFTDMQGMSLFQLNR
For B6, the Kd [7] was 100 µM.

B7: native FlgL of the hook-filament junction tip (natural protein)
chain: MRISTQMMYEQNMSGITNSQAEWMKLGEQMSTGKRVTNPSDDPIAASQAVVLSQAQAQNSQYALARTFATQKVSLEESVLSQVTTAIQTAQEKIVYAGNGTLSDDDRASLATDLQGIRDQLMNLANSTDGNGRYIFAGYKTEAAPFDQATGGYHGGEKSVTQQVDSARTMVIGHTGAQIFNSITSNAVPEPDGSDSEKNLFVMLDTAIAALKTPVEGNNVEKEKAAAAIDKTNRGLKNSLNNVLTVRAELGTQLSELSTLDSLGSDRALGQKLQMSNLVDVDWNSVISSYVMQQAALQASYKTFTDMQGMSLFQLNR
With B7 the “stoichiometry N” value (cryo-EM structure [5]) was 11.
